According to patent US20250368686A1 (OKINAWA INSTITUTE OF SCIENCE AND TECHNOLOGY SCHOOL, published 2025):

Assays:
[1] = molecular target: the molecule itself; experiment: cell-based or functional assay
[2] = molecular target: the molecule itself; experiment: calculated from KD (FIG. 2-4f)
Method: Accordingly, by subtracting the signal intensity after the quencher addition from that before the addition, we evaluated the percentages of the OPR molecules remaining in the PM (FIG. 2-s9; FIG. 2-5a). The time courses of the OPR numbers remaining in the PM after time 0 were examined in both the presence and absence of 0.2 μM agonists and ˜3 μM FAM-Xpep-TATs in the cytoplasm (FIG. 2-5b).

[3] = molecular target: the molecule itself; experiment: inverse of the homodimer lifetime; no agonist
[4] = molecular target: the molecule itself; experiment: inverse of the homodimer lifetime; after SNC-80
[5] = molecular target: the molecule itself; experiment: calculated from the equilibrium constants; no agonist
Method: (§1) The ratios of molecules that exist as dimers vs. monomers (D/M ratios) in terms of the number of protomers were calculated from KD at various expression levels (number density of molecules) (FIG. 2-4e, f). […] When they dissociate into monomers, they will again form dimers, but the rate of dimer formation depends on the number density of the monomers (and thus the expression levels).
(§2) The ratios of the numbers of protomers that exist as dimers vs. monomers at different expression levels in the PM were calculated from the three dynamic equilibrium constants and listed.

[6] = molecular target: the molecule itself; experiment: calculated from the equilibrium constants; after SNC-80
Method: as §1, §2

[7] = molecular target: the molecule itself; experiment: colocalization durations; SNC-80 and FAM-Dpep-TAT present
[8] = molecular target: T1, µ-type opioid receptor (MOR), rat, wild type, fluorescently tagged, expressed in the PM of CHO-K1 cells … (rat, UniProt P33535 1-398); experiment: colocalisation index, two-colour single-molecule imaging in CHO-K1 cells
T1 construct: whole, on cells; also called WT-MOR; MOR-Halo; not shown: Halo tag

[9] = molecular target: the molecule itself; experiment: inverse of the homodimer lifetime; after DAMGO
[10] = molecular target: the molecule itself; experiment: calculated from the equilibrium constants; after DAMGO
Method: as §1, §2

[11] = molecular target: T1, µ-type opioid receptor (MOR), rat, wild …; experiment: dependence of the DOR-MOR colocalisation index on the concentration of the soluble peptide (competition on cells)
[12] = molecular target: the molecule itself; experiment: inverse of the homodimer lifetime; after U-50488
[13] = molecular target: the molecule itself; experiment: calculated from the equilibrium constants; after U-50488
Method: as §1, §2

Row | Binder | Ca^2+ (FMax-Fb)/Fb; + Agonist + FAM-pep-TAT [1] | % of copies existing as dimers at ˜1 copy/µm^2, before agonist [2] | koff [3] | D/M ratio (protomers in dimers vs monomers) at 0.3 copies/µm^2 [5] | D/M ratio (protomers in dimers vs monomers) at 1 copies/µm^2 [5] | D/M ratio (protomers in dimers vs monomers) at 3 copies/µm^2 [5] | D/M ratio (protomers in dimers vs monomers) at 10 copies/µm^2 [5] | D/M ratio (protomers in dimers vs monomers) at 30 copies/µm^2 [5] | also measured
1 | SNAPf-DOR: rat DOR with the SNAPf tag protein at its N-terminus, expressed in the PM of CHO-K1 cells (Example 2) (receptor, not shown: small tags and cut ends, SNAPf tag covalently labelled with SNAP-Surface 549 or SNAP-CF660R, whole, on cells; Homodimer partner is the same molecule labelled in the other colour; also called WT DOR) SGGGSGGSGGGSGGSGGGSGGMEPVPSARAELQFSLLANVSDTFPSAFPSASANASGSPGARSASSLALAIAITALYSAVCAVGLLGNVLVMFGIVRYTKLKTATNIYIFNLALADALATSTLPFQSAKYLMETWPFGELLCKAVLSIDYYNMFTSIFTLTMMSVDRYIAVCHPVKALDFRTPAKAKLINICIWVLASGVGVPIMVMAVTQPRDGAVVCTLQFPSPSWYWDTVTKICVFLFAFVVPILIITVCYGLMLLRLRSVRLLSGSKEKDRSLRRITRMVLVVVGAFVVCWAPIHIFVIVWTLVDINRRDPLVVAALHLCIALGYANSSLNPVLYAFLDENFKRCFRQLCRAPCGGQEPGSLRRPRQATARERVTACTPSDGPGGGAAA | 2.84 (FMax-Fb)/Fb | 17% | 8 s⁻¹ | 0.07 | 0.21 | 0.5 | 1.17 | 2.3 | koff [4]: 3.62 s⁻¹; D/M ratio (protomers in dimers vs monomers) at 0.3 copies/µm^2 [6]: 0.15; D/M ratio (protomers in dimers vs monomers) at 1 copies/µm^2 [6]: 0.4; D/M ratio (protomers in dimers vs monomers) at 3 copies/µm^2 [6]: 0.89; D/M ratio (protomers in dimers vs monomers) at 10 copies/µm^2 [6]: 1.92; D/M ratio (protomers in dimers vs monomers) at 30 copies/µm^2 [6]: 3.62; fold of homodimer lifetime against wild-type DOR in the absence of the agonist [7]: ~1.5 fold
2 | κ-type opioid receptor (KOR), rat, wild type, fluorescently tagged, expressed in the PM of CHO-K1 cells (Example 1) (receptor, UniProt P34975 1-380, looked up, whole, on cells; also called WT-KOR; κ-OPR; not shown: fluorescent tag protein) MESPIQIFRGEPGPTCAPSACLLPNSSSWFPNWAESDSNGSVGSEDQQLEPAHISPAIPVIITAVYSVVFVVGLVGNSLVMFVIIRYTKMKTATNIYIFNLALADALVTTTMPFQSAVYLMNSWPFGDVLCKIVISIDYYNMFTSIFTLTMMSVDRYIAVCHPVKALDFRTPLKAKIINICIWLLASSVGISAIVLGGTKVREDVDVIECSLQFPDDEYSWWDLFMKICVFVFAFVIPVLIIIVCYTLMILRLKSVRLLSGSREKDRNLRRITKLVLVVVAVFIICWTPIHIFILVEALGSTSHSTAVLSSYYFCIALGYTNSSLNPVLYAFLDENFKRCFRDFCFPIKMRMERQSTNRVRNTVQDPASMRDVGGMNKPV | – | – | – | – | – | – | – | – | binding result [8]: no binding
3 | SNAPf-MOR: rat MOR with the SNAPf tag protein at its N-terminus, expressed in the PM of CHO-K1 cells (Example 2) (receptor, not shown: small tags and cut ends, SNAPf tag covalently labelled with SNAP-Surface 549 or SNAP-CF660R, whole, on cells; Homodimer partner is the same molecule labelled in the other colour; also called WT MOR) SGGGSGGSGGGSGGSGGGSGGMDSSTGPGNTSDCSDPLAQASCSPAPGSWLNLSHVDGNQSDPCGLNRTGLGGNDSLCPQTGSPSMVTAITIMALYSIVCVVGLFGNFLVMYVIVRYTKMKTATNIYIFNLALADALATSTLPFQSVNYLMGTWPFGTILCKIVISIDYYNMFTSIFTLCTMSVDRYIAVCHPVKALDFRTPRNAKIVNVCNWILSSAIGLPVMFMATTKYRQGSIDCTLTFSHPTWYWENLLKICVFIFAFIMPVLIITVCYGLMILRLKSVRMLSGSKEKDRNLRRITRMVLVVVAVFIVCWTPIHIYVIIKALITIPETTFQTVSWHFCIALGYTNSCLNPVLYAFLDENFKRCFREFCIPTSSTIEQQNSTRVRQNTREHPSTANTVDRTNHQLENLEAETAPLP | 2.78 (FMax-Fb)/Fb | 18% | 8.47 s⁻¹ | 0.08 | 0.22 | 0.54 | 1.23 | 2.41 | koff [9]: 5.35 s⁻¹; D/M ratio (protomers in dimers vs monomers) at 0.3 copies/µm^2 [10]: 0.06; D/M ratio (protomers in dimers vs monomers) at 1 copies/µm^2 [10]: 0.17; D/M ratio (protomers in dimers vs monomers) at 3 copies/µm^2 [10]: 0.43; D/M ratio (protomers in dimers vs monomers) at 10 copies/µm^2 [10]: 1.02; D/M ratio (protomers in dimers vs monomers) at 30 copies/µm^2 [10]: 2.03
4 | SDTFPSAFPSASANASGSPGARS (also called DpepDM(20-42); DpepDM) [Dpep(20-42)DM, soluble peptide with the N-terminal domain sequence aa20-42 of DOR] | – | – | – | – | – | – | – | – | Kd [11]: < 100 nM
5 | SNAPf-KOR: rat KOR with the SNAPf tag protein at its N-terminus, expressed in the PM of CHO-K1 cells (Example 2) (receptor, not shown: small tags and cut ends, SNAPf tag covalently labelled with SNAP-Surface 549 or SNAP-CF660R, whole, on cells; Homodimer partner is the same molecule labelled in the other colour; also called WT KOR) SGGGSGGSGGGSGGSGGGSGGMESPIQIFRGEPGPTCAPSACLLPNSSSWFPNWAESDSNGSVGSEDQQLEPAHISPAIPVIITAVYSVVFVVGLVGNSLVMFVIIRYTKMKTATNIYIFNLALADALVTTTMPFQSAVYLMNSWPFGDVLCKIVISIDYYNMFTSIFTLTMMSVDRYIAVCHPVKALDFRTPLKAKIINICIWLLASSVGISAIVLGGTKVREDVDVIECSLQFPDDEYSWWDLFMKICVFVFAFVIPVLIIIVCYTLMILRLKSVRLLSGSREKDRNLRRITKLVLVVVAVFIICWTPIHIFILVEALGSTSHSTAVLSSYYFCIALGYTNSSLNPVLYAFLDENFKRCFRDFCFPIKMRMERQSTNRVRNTVQDPASMRDVGGMNKPV | 2.46 (FMax-Fb)/Fb | 33% | 6.71 s⁻¹ | 0.19 | 0.5 | 1.08 | 2.28 | 4.26 | koff [12]: 17.9 s⁻¹; D/M ratio (protomers in dimers vs monomers) at 0.3 copies/µm^2 [13]: 0.07; D/M ratio (protomers in dimers vs monomers) at 1 copies/µm^2 [13]: 0.22; D/M ratio (protomers in dimers vs monomers) at 3 copies/µm^2 [13]: 0.52; D/M ratio (protomers in dimers vs monomers) at 10 copies/µm^2 [13]: 1.2; D/M ratio (protomers in dimers vs monomers) at 30 copies/µm^2 [13]: 2.35
